Source: US20050124544A1
Where no end group is shown, it is not given here.

Experiments:
[1] = biological target: 2C11 human monoclonal antibody; assay: competition ELISA: 2C11 preincubated with peptide at 20 (µM per paragraph 93), then on immobilised FVIII
[2] = biological target: 2C11 human monoclonal antibody; assay: competition ELISA: 2C11 preincubated with peptide at 200 (µM per paragraph 93), then on immobilised FVIII
[3] = biological target: 2C11 human monoclonal antibody; assay: competition ELISA: 2C11 preincubated with peptide at 2 (µM per paragraph 93), then on immobilised FVIII
[4] = biological target: 2C11 human monoclonal antibody; assay: competition ELISA: 2C11 preincubated with peptide at 0.002 (µM per paragraph 93), then on immobilised FVIII
[5] = biological target: 2C11 human monoclonal antibody; assay: competition ELISA: 2C11 preincubated with peptide at 0.02 (µM per paragraph 93), then on immobilised FVIII
[6] = biological target: 2C11 human monoclonal antibody; assay: cell-based or functional assay

| Binder | % inhibition [1] [%] | % inhibition [2] [%] | % inhibition [3] [%] | % inhibition [4] [%] | % inhibition [5] [%] | Bethesda test: neutralization of the inhibiting activity of 2C11 (3.5 nM), IC50 [6] [µM] | Bethesda test: peptide concentration for total neutralization of 2C11 (3.5 nM) [6] [µM] | in vivo (FVIII-deficient mice): procoagulant activity of injected FVIII kept with 2C11 (16.7 nM) plus peptide 107 (650 µM) [6] [%] |
| --- | --- | --- | --- | --- | --- | --- | --- | --- |
| Ac-QCHTWSNRRSCL (cysteine pairing not given here) [peptide 108 (…)] | 26 | 60.7 | 15.8 | 0 | 0 | – | – | – |
| Ac-SCHAWSNRRTCR (cysteine pairing not given here) [peptide 107 (…)] | 80 | 90.5 | 37.3 | 0 | 0 | 19 | 100 | 52 |
| Ac-ECGSHAWGRRCK (cysteine pairing not given here) [peptide 104 (…)] | 30.7 | 63.7 | 13.4 | 0 | 0 | – | – | – |
| Ac-CSKWHNRSKRHC (cysteine pairing not given here) [peptide 105 (…)] | 45 | 75.6 | 10.3 | 0 | 0 | – | – | – |
| Ac-KCGRWSNRSSCT (cysteine pairing not given here) [peptide 103 (…)] | 28.3 | 62.7 | 3.47 | 0 | 0 | – | – | – |
| Ac-CMKWSNRSSRWC (cysteine pairing not given here) [peptide 106 (…)] | 22 | 36.6 | 0 | 0 | 0 | – | – | – |
| Ac-RCHAWSNRKSCV (cysteine pairing not given here) [peptide 109 (…)] | 37.5 | 75 | 12.5 | 0 | 0 | – | – | – |
